From patent US20040038855A1 (priority 1999, published 2004)
Ends that are not written are not given here.

How the values were obtained:
human MCH1 receptor = human MCH1 receptor (Homo sapiens, UniProt Q99705); assay: Binding of [125I]Phe13,Tyr19-MCH on MCH1-transfected Cos-7 cell membranes; design: expressed in transfected cells; host or cells: COS-7; settings: 0.1 nM radioligand
Procedure: For binding assays, pellets of transfected cells are suspended in ice-cold buffer (20 mM Tris.HCl, 5 mM EDTA, pH 7.4) and homogenized by sonication for 7 sec. The cell lysates are centrifuged at 200×g for 5 min at 4° C. The supernatants are then centrifuged at 40,000×g for 20 min at 4° C. The resulting pellets are washed once in the homogenization buffer and suspended in binding buffer (see methods for radioligand binding). Protein concentrations are determined by the method of Bradford (1976) using bovine serum albumin as the standard. Binding assays are usually performed immediately, however it is possible to prepare membranes in batch and store frozen in liquid nitrogen for future use.
MCH1 binding experiments with membranes (20-40 μg membrane protein) from transfected cells are performed with 0.1 nM [^125I]Phe^13-Tyr^19-MCH (Custom labeled by NEN) using incubation buffer consisting of 50 mM Tris pH 7.4, 10MM MgCl2, 2 μg/ml aprotonin, 0.5 mM PMSF and 50 μg/ml bacitracin. Binding is performed at 25° C. for 1 hr. Incubations are terminated by rapid vacuum filtration over GF/C glass fiber filters, presoaked in 5% PEI using 50 mM Tris pH 7.4 containing 0.01% triton X-100 as wash buffer.
Specific [^125I]Phe^13-Tyr^19-MCH binding was about 70% of total binding at a radioligand concentration of 0.1 nM (FIG. 10).

[1] = tested on: MCH binding sites of G4F-7 cells; settings: cited from earlier work

human MCH1 receptor, sequence (Q99705 whole entry): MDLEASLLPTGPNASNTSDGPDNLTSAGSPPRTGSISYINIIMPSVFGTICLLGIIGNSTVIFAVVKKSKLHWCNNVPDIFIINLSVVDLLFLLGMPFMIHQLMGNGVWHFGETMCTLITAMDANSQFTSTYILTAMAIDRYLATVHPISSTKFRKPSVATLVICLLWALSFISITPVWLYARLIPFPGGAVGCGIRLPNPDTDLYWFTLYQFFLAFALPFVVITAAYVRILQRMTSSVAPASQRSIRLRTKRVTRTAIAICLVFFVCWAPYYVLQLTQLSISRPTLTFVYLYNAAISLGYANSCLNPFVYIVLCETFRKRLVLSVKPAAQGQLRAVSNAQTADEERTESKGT

For “[^125I]Phe^13-Tyr^19-MCH: radioiodinated MCH analogue, custom labeled by NEN, radioligand of the MCH1 binding experiments”, the “specific binding as share of total binding” value (human MCH1 receptor) was “about 70 % of total binding” and the specific binding (human MCH1 receptor; MCH1-transfected cells) was “about 80 fmol/mg membrane protein”.
In the case of “rat ANF: rat ANF, weakly inhibited binding of the radioiodinated MCH analogue (SLRRSSCFGGRIDRIGAQSGLGCNSFRY; ends and bridges not checked; cysteine pairing not given here; UniProt P01161 123-150, looked up)”, the Ki ([1]; inhibition of binding of the radioiodinated ligand) is listed as 116 nM.
In the case of α-MSH, the “inhibition of binding of the radioiodinated ligand” value [1] is listed as “not inhibited”.
